In patent publication US12447213B2, “Modulation of novel immune checkpoint targets” (The Brigham and Women's Hospital, Inc., priority 2016, dated 2025):

B1: CD166: recombinant CD166; transmembrane glycoprotein (type I) encoded by the ALCAM gene, novel ligand of ILT-3 (protein, UniProt Q13740 28-583, looked up)
CD166 antigen: WYTVNSAYGDTIIIPCRLDVPQNLMFGKWKYEKPDGSPVFIAFRSSTKKSVQYDDVPEYKDRLNLSENYTLSISNARISDEKRFVCMLVTEDNVFEAPTIVKVFKQPSKPEIVSKALFLETEQLKKLGDCISEDSYPDGNITWYRNGKVLHPLEGAVVIIFKKEMDPVTQLYTMTSTLEYKTTKADIQMPFTCSVTYYGPSGQKTIHSEQAVFDIYYPTEQVTIQVLPPKNAIKEGDNITLKCLGNGNPPPEEFLFYLPGQPEGIRSSNTYTLTDVRRNATGDYKCSLIDKKSMIASTAITVHYLDLSLNPSGEVTRQIGDALPVSCTISASRNATVVWMKDNIRLRSSPSFSSLHYQDAGNYVCETALQEVEGLKKRESLTLIVEGKPQIKMTKKTDPSGLSKTIICHVEGFPKPAIQWTITGSGSVINQTEESPYINGRYYSKIIISPEENVTLTCTAENQLERTVNSLNVSAISIPEHDEADEISDENREKVNDQAKLIVGIVVGLLLAALVAGVVYWLYMKKSKTASKHVNKDLGNMEENKKLEENNHKTEA

Columns and labels:
[1] = vaccination alone or combined with a low dose of estramustine; cited from earlier work
pathogenic Th17 cells = test: Pathogenic Th17 differentiation in the presence of plate bound recombinant CD166, cytokine production by FACS; assay type: cell-based, mouse; conditions: 10 ug/ml, Gp49 dependent, WT or Gp49b KO
Description: FIG. 49. Plate-bound CD166 inhibits GM-CSF and enhances IL10 production from pathogenic Th17 cells in a Gp49 dependent way. Naïve T cells from spleen of WT or Gp49b KO mouse were differentiated into pathogenic in vitro with anti-CD3/CD28 Dynabeads in the presence of plate bound recombinant CD166 (10 ug/ml) or BSA (10 ug/ml) as control. Cytokine production from Th17 cells were measured by FACS on day 4.
(§1) To investigate the role of CD166, CD4+CD44^loCD62L^hi naïve CD4 T cells were sorted by FACS and cultured in vitro with plate-bound anti-CD3 (2 ug/ml) and anti-CD28 (2 ug/ml) plus the following polarizing cytokines: IL12 (20 ng/ml) for Th1 cells; IL4 (20 ng/ml) for Th2 cells; TGFb (5 ng/ml) for iTreg cells; IL27 (25 ng/ml) for Tr1 cells; TGFb (2 ng/ml) and IL6 (25 ng/ml) for non-pathogenic Th17; TGFb (2 ng/ml), IL6 (25 ng/ml) and IL23 (20 ng/ml), or, […] (25 ng/ml) and IL23 (20 ng/ml) for pathogenic Th17. Expression of CD166 was measured by FACS on day 3. […] (FIG. 48). To determine the effect of plate-bound CD166, naïve T cells from spleen of WT or Gp49b KO mouse were differentiated into pathogenic in vitro with anti-CD3/CD28 Dynabeads in the presence of plate bound recombinant CD166 (10 ug/ml) or BSA (10 ug/ml) as control. Cytokine production from Th17 cells were measured by FACS on day 4. […] Next, the role of exogenous CD166 was assayed. […] Stained cells were analyzed by FACS.

Th17 cells = test: Binding of recombinant His-tagged CD166 to Th17 cells (FACS); parameters: species or system mice; conditions: exogenous, 10 ug/ml; HBSS
Description: FIG. 50. Exogenous CD166 binds weakly to Th17 cells (in HBSS). In vitro differentiated pathogenic and non-pathogenic Th17 cells were incubated with recombinant His-tagged CD166 (10 ug/ml) in indicated buffer at room temperature for 30 min, washed twice, and then incubated with anti-His antibody for 10 min. Stained cells were analyzed by FACS.
as §1

Molecule	patients with a ≥50% decrease in serum prostate specific antigen (PSA) [1] [%]	GM-CSF production from pathogenic Th17 cells (pathogenic Th17 cells)	IL10 production from pathogenic Th17 cells (pathogenic Th17 cells)	binding to Th17 cells (Th17 cells)
C[C@]12CC[C@@H]3c4ccc(OC(=O)N(CCCl)CCCl)cc4CC[C@H]3[C@@H]1CC[C@@H]2O [estramustine]	54			
B1		inhibits	enhances	binds weakly
